Our source for the protein stability index values is the supplement of paper PMC10724198.

± gives the standard deviation of the averaged measurements.
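Note: PSI is a weighted mean of sequencing reads over stability bins, variants kept only with over 10 reads, mCherry proximal and sfGFP distal, peptide attached via GGGS linker.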

In this series the test system is Saccharomyces cerevisiae. The experiment in a line: protein stability index of tFT-peptide fusion (C-terminal peptide) (PSI (0-1 scale)); higher = more stable (slower turnover). The following applies: genetic background: wild type; temperature: 30 C. The protocol: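 Multiplexed protein stability (MPS) profiling in S. cerevisiae. Random 12-aa peptides (tFT-X12 library) are fused to the C-terminus of a sfGFP-mCherry tandem fluorescent timer, after mCherry and a GGGS linker. Cells are FACS-sorted into 8 mCherry/sfGFP bins and deep-sequenced. The protein stability index (PSI) is the read-weighted bin average, scaled from 0 (unstable) to 1 (stable). Only peptides with >10 reads are reported; cells were grown at 30 °C in SC-His with glucose.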
Take FTSPLPPVAPPL: the protein stability index came to 0.693 ± 0.03.
Next, FTVCVIYSKPSQ: 0.5872 ± 0.0013; FTWFGAFLSCFV: 0.61 ± 0.069.
FVADRLIFGKSL registered a protein stability index of 0.71 ± 0.044.
With FVASVGVGGGVG, the protein stability index amounted to 0.58 ± 0.013.
The figure for FVGAAALSVWGG is 0.645 ± 0.0072.
The figure for FVLADLVPILFS is 0.7102 ± 0.0013; for FVLLGVRGVAGW it is 0.709 ± 0.02; for FVLSVDLSVEGS it is 0.585 ± 0.037.
As to FVNKRRGCRELE, the protein stability index is 0.701 ± 0.0053.
The figure for FVQSMGVGLGWG is 0.694 ± 0.026; for FVRPPHTTHPHP it is 0.681 ± 0.041.
FVSFFPFPFLLL registered a protein stability index of 0.482 ± 0.045.
The figure for FVSGLEMCRTCF is 0.672 ± 0.025; for FVSLVATASHWV it is 0.568 ± 0.033; for FVSSFSCVGLVL it is 0.644 ± 0.08.
Next, FWGGGGGVGLAV: 0.683 ± 0.063; FWMPKASALGAA: 0.655 ± 0.019.
The figure for FYPSRVPPLQSA is 0.662 ± 0.056; for FYREFNSSSVCT it is 0.788 ± 0.24; for FYRPNLLNAGRL it is 0.715 ± 0.023.
For the sequence FYRWDTFRWTRG, the protein stability index came to 0.683 ± 0.01.
The figure for FYYAERGSVERQ is 0.641 ± 0.0095; for GACHNVGVGPLG it is 0.67 ± 0.024; for GACPARGRFLRR it is 0.753 ± 0.086.
The figure for GACSPQTNDSSR is 0.709 ± 0.035; for GADPPGHSSDDS it is 0.712 ± 0.11; for GADTSRSYRIGL it is 0.757 ± 0.0085.
Next, GAFCGGSSVFYL: 0.659 ± 0.01; GAFRQGYCLSGL: 0.67 ± 0.025; GAGAHCVSWLSN: 0.695 ± 0.0076.
For GAGDGRGRIEGR, the protein stability index amounted to 0.674 ± 0.015.
Next, GAGGCNVGWRIR: 0.7265 ± 0.0014; GAGKGWARWLVW: 0.632 ± 0.041; GAGMAGEVVGDG: 0.637 ± 0.026.
The figure for GAGWCDGGRGGV is 0.6747 ± 0.0014.
Next, GAGWLSWEGGGD: 0.686 ± 0.04.
In turn, GALLLVPFFWGE had a protein stability index of 0.668 ± 0.018.
Consider GAPLALSVSFPG, for which the protein stability index is 0.648 ± 0.014.
As to GAQSRQMRSLAQ, the protein stability index was 0.65 ± 0.11.
The figure for GARAGLIDALLS is 0.675 ± 0.021.
Next, GARGMGGLFFLG: 0.728 ± 0.053; GARSRLFRWWVA: 0.601 ± 0.012; GASDWVMLYWVV: 0.584 ± 0.0098.
GASGLRIIQVSW showed a protein stability index of 0.671 ± 0.0098.
The figure for GASGVYMLDAYA is 0.632 ± 0.058; for GASPRAYPLPPP it is 0.707 ± 0.032.
The sequence GATGGAWGVWAG returned a protein stability index of 0.676 ± 0.019.
Next, GAVARFRPCWPL: 0.633 ± 0.011.
The figure for GAVWLLFCGGVG is 0.555 ± 0.024; for GCFFQPRWSLLS it is 0.599 ± 0.0088.
GCFLDLVFRSRI: the protein stability index turned out to be 0.668 ± 0.0074.
Next, GCFLRHAPALRF: 0.735 ± 0.063.
Next, GCGSYELLRSAS: 0.68 ± 0.012.
The figure for GCLDGLGLPCLS is 0.681 ± 0.079; for GCLGDRVKSPIV it is 0.638 ± 0.068.
In the case of GCPHGTLFVSLE, the protein stability index came out at 0.699 ± 0.065.
Next, GCRARKSRRTPT: 0.664 ± 0.011; GCRCWGVRVGCV: 0.5407 ± 0.003; GCRGEWGWVGRG: 0.691 ± 0.017.
The figure for GCSCFLAGAFVL is 0.732 ± 0.038.
The figure for GCSQGGRRSGNE is 0.644 ± 0.029.
Consider GDFFQRVVGGGG, for which the protein stability index was found to be 0.733 ± 0.16.
The figure for GDFFVGLEWRDI is 0.622 ± 0.13.
The sequence GDFILLCDFDPI returned a protein stability index of 0.712 ± 0.09.
The figure for GDFSLCPMFCAP is 0.677 ± 0.071; for GDGSNVSLFILF it is 0.784 ± 0.13.
Next, GDGWLSGVPEEL: 0.74 ± 0.017; GDKKYRYGNKVF: 0.737 ± 0.086; GDRRRVFGSEQR: 0.662 ± 0.088.
Next, GDYKESAFRMDG: 0.761 ± 0.043; GEAWWLRGGGER: 0.757 ± 0.03; GEEGRNEQKQDA: 0.7249 ± 0.0011.
GEGERVCVGSEF returned a protein stability index of 0.745 ± 0.033.
The figure for GEGLWGGRGRRW is 0.687 ± 0.046.
Next, GEGPTGAKQDYV: 0.6239 ± 0.0023; GEGRGLCNLVAG: 0.65 ± 0.025; GEGTERLGKSTR: 0.651 ± 0.046.
The sequence GEKQVDGGDGQR had a protein stability index of 0.6985 ± 0.0012.
The figure for GEKREGRKTRRD is 0.608 ± 0.046.
On to GERDWRAKRTRE, for which the protein stability index is 0.692 ± 0.055.
Next, GERGGKGHEQGL: 0.623 ± 0.043; GERWSGVGEWVW: 0.739 ± 0.014; GESRDEGRGVRA: 0.638 ± 0.069.
As to GEVIAYGSAWGL, the protein stability index stood at 0.647 ± 0.014.
In turn, GEWGRVGVPGCS displayed a protein stability index of 0.718 ± 0.043.
The figure for GEWRFCLGYRRR is 0.647 ± 0.018.
The figure for GFCCPMFLALFS is 0.587 ± 0.022; for GFCRWVRRDDCI it is 0.693 ± 0.032; for GFCTVVGGVVIG it is 0.7202 ± 0.0016.
In turn, GFFGDFIVFDFS showed a protein stability index of 0.777 ± 0.022.
Turning to GFGFLQIVSGWL, the protein stability index was found to be 0.608 ± 0.067.
Consider GFGGWIVCLGGG, for which the protein stability index was 0.669 ± 0.0096.
Take GFGSEGQDMVGL: the protein stability index was 0.6658 ± 0.0027.
The figure for GFGSTTTRLALV is 0.662 ± 0.13.
The figure for GFGVAGLVGKGV is 0.662 ± 0.053; for GFIYRLCRISIP it is 0.635 ± 0.025.
The figure for GFKEGRSYWRFY is 0.74 ± 0.034.
As for GFLIGRLGEGSG, the protein stability index worked out at 0.728 ± 0.023.
The figure for GFLPCKVVRTCV is 0.549 ± 0.055.
Consider GFLPSIVPPVPR, for which the protein stability index was 0.753 ± 0.02.
Next, GFLPVQGQGLVD: 0.688 ± 0.045; GFRVSVGVVEGG: 0.6716 ± 0.0056.
As for GFSLSGRFFLRC, the protein stability index was 0.708 ± 0.013.
GFSNKKNVPLTR: the protein stability index amounted to 0.568 ± 0.066.
Next, GFSSVILMHMPC: 0.7534 ± 0.0048.
The figure for GFVFSRGLERPL is 0.675 ± 0.062; for GFVPGGGGRSSV it is 0.681 ± 0.0092; for GFVRGDRSGGGG it is 0.72 ± 0.0085.
GFVVCVFPLLLP gave a protein stability index of 0.563 ± 0.029.
Next, GFWGSRTSGSIP: 0.7335 ± 0.007; GGAEACSDRGGG: 0.704 ± 0.018.
Next, GGAEGLHVRDVV: 0.722 ± 0.051; GGAGGGVWGGGV: 0.735 ± 0.014.
The figure for GGAGGHCSHEWS is 0.728 ± 0.039; for GGAMYVSFFDKF it is 0.68 ± 0.021.
